Measurements as given in PMC3469540.

Tested on: PSC (Posterior Sex Combs) (Drosophila)
Assay: centrifugation (array oligomerization)
Details: 50% of template pelleted; saturates at 2 PSC per nucleosome; not an affinity; Buffer, salt, pH and temperature of the nucleic acid binding assays not given in the material; EMSA on 0.8% agarose, 0.5X TBE after glutaraldehyde …

12-nucleosome array
K half (PSC per nucleosome): 0.25
